We go through 1 molecule from PMC5437283.

Settings in all cases: remark: other sources report otherwise
In assay [1] the target is T1, wildtype pneumolysin (PLYWT) (Streptococcus pneumoniae), P0C2J9.
T1 chain: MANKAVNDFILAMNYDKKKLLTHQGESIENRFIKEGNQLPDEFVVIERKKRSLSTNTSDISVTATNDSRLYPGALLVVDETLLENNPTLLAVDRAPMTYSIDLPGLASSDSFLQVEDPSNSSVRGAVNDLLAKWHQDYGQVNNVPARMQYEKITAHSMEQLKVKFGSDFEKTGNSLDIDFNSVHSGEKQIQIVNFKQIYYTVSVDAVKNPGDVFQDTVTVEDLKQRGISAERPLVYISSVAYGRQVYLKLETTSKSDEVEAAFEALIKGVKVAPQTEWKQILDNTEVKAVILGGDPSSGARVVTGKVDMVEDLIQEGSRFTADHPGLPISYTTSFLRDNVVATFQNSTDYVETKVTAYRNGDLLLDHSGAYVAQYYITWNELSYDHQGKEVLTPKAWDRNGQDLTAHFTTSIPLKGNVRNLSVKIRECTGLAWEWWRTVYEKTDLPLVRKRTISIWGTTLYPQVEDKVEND
Kind of assay: electron cryo-tomography with subtomogram averaging; pores: preformed cholesterol-containing liposomes incubated with PLY (1 mg/ml) at 37°C for 30-180 min; subtomogram average at 27 Å.

For assay [2], the target named is T1, wildtype pneumolysin (PLYWT) …. Kind of assay: electron cryo-tomography with subtomogram averaging; prepores: preformed cholesterol-containing liposomes incubated with PLY (1 mg/ml) at room temperature for 30 min; subtomogram average at 22 Å.
For assay [3] the target is unchanged. Put plainly: cryo-EM structure; single-particle cryoEM of PLY pore complexes formed on DOPC/cholesterol liposomes (37°C, 30 min), solubilised with 0.56% Cymal-6 and exchanged into amphipol A8-35; 50 mM Tris-HCl pH 7.0, 150 mM NaCl, 5 mM β-mercaptoethanol; 42-fold symmetry, 4.5 Å.

B1: wildtype pneumolysin (PLYWT), P0C2J9 1-471 (natural protein)
chain: T1 chain
With B1, the figures for the stoichiometry N in assay [1], in assay [2] and in assay [3] were 34 subunits, 34 subunits and 42 subunits, respectively.
